PMC3440371, “Non-Covalent Interaction between Polyubiquitin and GTP Cyclohydrolase 1 Dictates Its Degradation” (PLoS ONE, 2012)

Biological target: T1, polyubiquitin chains, endogenous in HEK293 cells (human (endogenous in HEK293), UniProt P0CG48 1-76)
T1 construct: ubiquitin (76 amino acids), cut product of the polyubiquitin precursor, joined into endogenous polyubiquitin chains; Precipitated or detected with a polyclonal ubiquitin antibody; seen as smeared bands; source: endogenous, HEK293 lysate
Test: co-IP; lysates of HEK293 cells transfected with FLAG-GCH1 or mutants for 2 days, immunoprecipitated with the ubiquitin antibody and protein A/G beads; blot with FLAG antibody; empty vector as control
Details: partners not purified

B1: FLAG-GTPCH1 I131L (natural protein, human, UniProt P30793 1-250, looked up)
chain: MEKGPVRAPAEKPRGARCSNGFPERDPPRPGPSRPAEKPPRPEAKSAQPADGWKGERPRSEEDNELNLPNLAAAYSSILSSLGENPQRQGLLKTPWRAASAMQFFTKGYQETISDVLNDAIFDEDHDEMVLVKDIDMFSMCEHHLVPFVGKVHIGYLPNKQVLGLSKLARIVEIYSRRLQVQERLTKQIAVAITEALRPAGVGVVVEATHMCMVMRGVQKMNSKTVTSTMLGVFREDPKTREEFLTLIRS
notes: GTP cyclohydrolase 1 (GTPCH1), human, full-length GCH1 cDNA with the point mutation I131L; also called FLAG-GCH1 I131L; source: HEK293, transfected (pCI-neo), in lysate; not shown: FLAG, C-terminal, kept
  fold change of ubiquitin binding against wild-type FLAG-GTPCH1: ~4.5 fold
